Test results reported in doi:10.1101/2020.10.20.346890 (bioRxiv, 2020).
Where “and” joins values, the source holds several entries; their conditions need not be identical. Equal values may be shown once.

B1: LoodHU-B (loop-deleted HU-B) (other)
chain: MNKSQLIDKIAAGADISKAAAGRALDAIIASVTESLKEGDDVALVGFGTFASGGGGSGGGGSKVPSFRAGKALKDAVN
B2: LoodLysrHU-B (loop-deleted and lysine-replaced HU-B) (other)
chain: MNKSQLIDKIAAGADISKAAAGRALDAIIASVTESLKEGDDVALVGFGTFASGGGGSGGGGSKVPSFRAGAALADAVN
B3: HU-B wild type (natural protein)
chain: MNKSQLIDKIAAGADISKAAAGRALDAIIASVTESLKEGDDVALVGFGTFAVKERAARTGRNPQTGKEITIAAAKVPSFRAGKALKDAVN
B4: LysrHU-B (lysine-replaced HU-B) (other)
chain: MNKSQLIDKIAAGADISKAAAGRALDAIIASVTESLKEGDDVALVGFGTFAVKERAARTGRNPQTGKEITIAAAKVPSFRAGAALADAVN

Experiments:
[1] = target: the molecule itself; assay: cross-linking
[2] = target: the molecule itself; assay: SEC

Row | Protein | stoichiometry N [1] | stoichiometry N [2]
1 | B1 | 4 | 2
2 | B2 | 2 and 4 | 
3 | B3 | 4 and 3 and 6 | 2
4 | B4 | 2 and 4 | 
